Data on two molecules can be found in article PMC6677171, “Subunit interactions and arrangements in the fission yeast Mis16–Mis18–Mis19 complex” (Life Science Alliance, 2019).

The test system of assay [1] is Cnp1–H4. Briefly: Pull-down competition with full-length histones Cnp1–H4 (histone octamers). Format: binding, S. pombe. As to conditions: incubation with Cnp1–H4–H2A–H2B octamers (molar excess); 25 mM Tris–HCl, pH 7.5, 500 mM NaCl, 5% glycerol, 1 mM TCEP, at least 1 h at 4°C; SDS–PAGE. The method, then: We were unable to purify these directly as recombinant proteins, probably because of the lack of a suitable chaperone. […] As free Mis19 is extremely unstable, we tested if preformed Mis16–Mis19 dimers (full-length and N-terminally truncated, see sections below) could also interact with H4–Cnp1 by incubating them in a large molar excess of histone octamer.
All proteins were expressed in insect cells using standard procedures. Genes were codon-optimised in all cases (GeneArt). Single protein constructs were cloned in pFastBac vectors (Invitrogen), whereas multi-protein complexes were cloned using the MultiBac system ([Fitzgerald et al, 2006]). The Mis16 protein carried a TEV protease-cleavable double-Strep-Tactin tag at the N terminus for purification purposes. All clones were sequence verified. Baculoviruses were generated and amplified using Sf21 cells, infected in Hi5 cells, and then further incubated at 27°C for 48 h. Harvested cells were lysed by sonication in buffer A containing 50 mM Tris–HCl, pH 7.5, 150 mM NaCl, 0.5 mM TCEP, benzonase nuclease (3 units/1 × 10^6 cells), 10% glycerol, and protease inhibitors cocktail set III (Calbiochem). […]
All in vitro pull-down assays were performed using purified proteins or protein complexes. […] Input and pull-down elution samples were analysed by SDS–PAGE.

The target in assay [2] is T1, Mis16 (Schizosaccharomyces pombe, UniProt O94244).
T1 construct: double-Strep-Tactin tag (TEV protease-cleavable) (N, cleaved yes); made in house; host or cells: insect cells (baculovirus made in Sf21, expression in Hi5)
The assay can be described thus: Co-expression and affinity pull-down/size-exclusion co-purification of Mis19 deletions with Mis16. Format: binding, S. pombe. Conditions: co-expressed in insect cells, Strep-Tactin tag on Mis16, gel filtration, SDS–PAGE band. From the text: Figure 2. Mis16–Mis19 contact regions. (A) Crystal structure of Mis16–Mis19 highlighting the Mis19-binding sites. Three putative binding sites A, B, and C (lighter to darker orange from N terminus to C terminus) are indicated. (B) Schematic of the various deletion constructs of Mis19 are used for binding studies showing the positions of sites A, B, and C. (C) Constructs containing affinity-tagged Mis16 and the Mis19 deletions shown above were co-expressed and purified by affinity pull-down and size-exclusion chromatography. SDS–PAGE gel of peak fractions is shown. Asterisks indicate impurities. (D) Close-up of the A- and C-binding sites. The locations of the kis1-1 (R65) and eic1-1 (F102) t.s. mutant residues are shown.
The C-terminal interaction of Mis19 with Mis16 (site C in our nomenclature) has been previously described ([An et al, 2018]). […] To test the contribution of the individual sites to the Mis16–Mis19 interaction, various truncated Mis19 constructs were designed, for which site A, […], or both A and C are missing (Fig 2B). Full-length Mis16 and Mis19C (includes sites A, B, and C, residues 52–112), construct 1 (includes site B and C, residues 66–112), construct 2 (includes binding site B, residues 66–99), and construct 3 (includes site A and B, residues 52–99) were co-expressed in insect cells, as the isolated Mis19 truncations cannot be expressed and purified. […]

T1 sequence (O94244 whole entry): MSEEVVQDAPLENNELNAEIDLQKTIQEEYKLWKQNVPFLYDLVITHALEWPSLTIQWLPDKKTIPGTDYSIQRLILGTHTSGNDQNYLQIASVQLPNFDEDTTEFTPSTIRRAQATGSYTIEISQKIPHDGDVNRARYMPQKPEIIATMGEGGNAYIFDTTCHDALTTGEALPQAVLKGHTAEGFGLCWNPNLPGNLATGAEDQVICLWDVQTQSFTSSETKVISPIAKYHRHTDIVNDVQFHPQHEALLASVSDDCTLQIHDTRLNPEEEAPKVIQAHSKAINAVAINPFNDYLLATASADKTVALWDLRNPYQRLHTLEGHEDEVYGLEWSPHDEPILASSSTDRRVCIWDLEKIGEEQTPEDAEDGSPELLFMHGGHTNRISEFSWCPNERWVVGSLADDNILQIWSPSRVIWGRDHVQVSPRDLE

B1: Mis19: S. pombe Mis18 partner protein (protein)
chain: MDLMPLEKARAIEIAFDNVFHNTKIPDNLQQFDAILKRLERRRFIPTENQKPRVYETELLVLRFREFGVKDNHNHPINLHSLRSKSLIRAQGKKLDLHNRVFLRRNVRAVKM
Consider B1, for which the “interaction with Cnp1–H4 / histone transfer” value in assay [1] is given as “completely inhibits histone transfer to Mis16”.

B2: Mis19C: Mis19 truncation including sites A, B, and C, residues 52–112 (protein)
chain: PRVYETELLVLRFREFGVKDNHNHPINLHSLRSKSLIRAQGKKLDLHNRVFLRRNVRAVKM
As for B2, the “association with Mis16” value in assay [2] was “Mis19 is associated with Mis16”. The “interaction with Cnp1–H4 / histone transfer” value in assay [1] is “no histones can be transferred onto Strep-Mis16”.
